Laboratory results reported in publication PMC5091765.

Legend:
[1] = biological target: bovine TGF-β RII extracellular domain fused to the human IgG1 Fc domain (bovine); test: ELISA; competition: FhTLM coated at 400 ng/mL; increasing concentrations of TGF-β incubated with the Receptor-Fc fusion in solution at 37°C for 1 hr, then added to the plate
[2] = biological target: bovine TGF-β RI extracellular domain fused to the human IgG1 Fc domain (bovine) (UniProt O46680); test: as above
[3] = biological target: bovine TGF-β RII extracellular domain fused to the human IgG1 Fc domain (bovine)
[4] = biological target: bovine TGF-β RI extracellular domain fused to the human IgG1 Fc domain (bovine) (UniProt O46680)
[5] = biological target: bovine TGF-β RII extracellular domain fused to the human IgG1 Fc domain (bovine); test: ELISA; competition: TGF-β coated at 400 ng/mL; increasing concentrations of FhTLM incubated with the Receptor-Fc fusion in solution at 37°C for 1 hr, then added to the plate
[6] = biological target: bovine TGF-β RI extracellular domain fused to the human IgG1 Fc domain (bovine) (UniProt O46680); test: as above

Chain of bovine TGF-β RI extracellular domain fused to the human IgG1 Fc domain (bovine) (O46680 30-122): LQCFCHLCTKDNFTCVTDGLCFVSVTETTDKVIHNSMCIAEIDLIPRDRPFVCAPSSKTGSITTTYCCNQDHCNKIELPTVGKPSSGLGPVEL

| percent reduction of the binding of TGF-β RII-Fc to immobilised FhTLM [1] [%] | percent reduction of the binding of TGF-β RI-Fc (printed as TGF-β RII-Fc a second time) to immobilised FhTLM [2] [%] | Substance | percent of primary bovine PBMCs positive for pSmad2/3 co-localised with the nucleus, 3 to 4 hrs with FhTLM [3] | percent of primary bovine PBMCs positive for pSmad2/3 co-localised with the nucleus, 3 to 4 hrs with FhTLM [4] | percent reduction of the binding of TGF-β RII-Fc to immobilised TGF-β1 [5] [%] | percent reduction of the binding of TGF-β RI-Fc to immobilised TGF-β1 [6] [%] |
| --- | --- | --- | --- | --- | --- | --- |
| 50 | 22 | human TGF-β1 (ligand) | – | – | – | – |
| – | – | F. hepatica TGF-like molecule, FhTLM (recombinant) (ligand) | 15.8 % of cells | 15.8 % of cells | 46 | 42 |
